Laboratory results as given in patent publication US20120251547A1 (Amgen, published 2012).

Key:
[1] = biological target: human IL-17RA, full-length, on cells (human, UniProt Q96F46 33-866); assay: cell-based or functional assay
[2] = biological target: human IL-17RA (form used in the low resolution BIAcore not stated) (human, UniProt Q96F46 33-320, limits assumed); assay: low resolution BIAcore, subcloned hybridoma
huIL-17RA-FLAG-polyHis [3] = biological target: T1, huIL-17RA-FLAG-polyHis (human, UniProt Q96F46 33-320); assay: binning; IL-17RA held by bead mAb D
T1 construct: also called IL-17RA-FLAG-pHis; wild-type IL-17RA

huIL-17RA-FLAG-polyHis [4] = biological target: T1, huIL-17RA-FLAG-polyHis; assay: binning; IL-17RA held by bead mAb E
huIL-17RA-FLAG-polyHis [5] = biological target: T1, huIL-17RA-FLAG-polyHis; assay: binning; IL-17RA held by bead mAb G
huIL-17RA-FLAG-polyHis [6] = biological target: T1, huIL-17RA-FLAG-polyHis; assay: binning; IL-17RA held by bead mAb N
huIL-17RA-FLAG-polyHis [7] = biological target: T1, huIL-17RA-FLAG-polyHis; assay: binning; IL-17RA held by bead mAb O
chimera J = biological target: T2, chimera J; assay: Bio-Plex titration on His-captured chimera;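 further: binding of anti-IL-17RA antibodies (4-fold titration across about 5 logs, 1 h) to His-captured IL-17RA chimeras on multiplexed beads, MFI read as percent of maximal wild-type human IL-17RA signal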
T2 construct: human IL-17RA extracellular domain with mouse Domains D and E; column head D+E; also called Construct J

chimera D = biological target: T3, chimera D; assay: Bio-Plex titration on His-captured chimera;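 further: binding of anti-IL-17RA antibodies (4-fold titration across about 5 logs, 1 h) to His-captured IL-17RA chimeras on multiplexed beads, MFI read as percent of maximal wild-type human IL-17RA signal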
T3 construct: human IL-17RA extracellular domain with mouse Domain D; column head 176-197; also called Construct D
T3 IL-17RA extracellular domain with FLAG-polyHis tag: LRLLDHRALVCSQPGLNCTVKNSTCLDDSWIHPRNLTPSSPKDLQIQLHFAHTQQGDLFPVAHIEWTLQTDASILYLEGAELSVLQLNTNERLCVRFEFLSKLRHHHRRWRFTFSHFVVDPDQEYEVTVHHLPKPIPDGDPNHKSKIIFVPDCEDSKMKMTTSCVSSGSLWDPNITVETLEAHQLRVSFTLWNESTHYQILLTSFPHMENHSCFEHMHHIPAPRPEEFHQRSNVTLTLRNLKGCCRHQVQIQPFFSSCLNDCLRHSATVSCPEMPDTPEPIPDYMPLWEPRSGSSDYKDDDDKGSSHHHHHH

muIL-17RA-FLAG-polyHis = biological target: T4, muIL-17RA-FLAG-polyHis (mouse, UniProt Q60943 32-322); assay: Bio-Plex, His-tagged muIL-17RA on pentaHis beads, antibody titration
T4 construct: also called mouse IL-17RA; mu WT

chimera F [8] = biological target: T5, chimera F; assay: Bio-Plex titration on His-captured chimera; cell not bold in the scan
T5 construct: human IL-17RA extracellular domain with mouse Domain F; column head 229-319; also called Construct F

chimera K [9] = biological target: T6, chimera K; assay: Bio-Plex titration on His-captured chimera; cell bold in heavy box (shaded: lost binding)
T6 construct: human IL-17RA extracellular domain with mouse Domains A and F; also called Construct K

chimera L = biological target: T7, chimera L; assay: as above
T7 construct: human IL-17RA extracellular domain with mouse Domains B and F; B+F; also called Construct L

chimera M [10] = biological target: T8, chimera M; assay: as above
T8 construct: human IL-17RA extracellular domain with mouse Domains C and F; also called Construct M

huIL-17RA-FLAG-polyHis [11] = biological target: T1, huIL-17RA-FLAG-polyHis; assay: SPR Biacore 3000, mAb captured on anti-human IgG CM4 chip, soluble huIL-17RA-FLAG-polyHis as analyte, 25 C, 1:1 model
chimera K [12] = biological target: T6, chimera K; assay: Bio-Plex titration on His-captured chimera;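 further: binding of anti-IL-17RA antibodies (4-fold titration across about 5 logs, 1 h) to His-captured IL-17RA chimeras on multiplexed beads, MFI read as percent of maximal wild-type human IL-17RA signal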
chimera M [13] = biological target: T8, chimera M; assay: Bio-Plex titration on His-captured chimera;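 further: binding of anti-IL-17RA antibodies (4-fold titration across about 5 logs, 1 h) to His-captured IL-17RA chimeras on multiplexed beads, MFI read as percent of maximal wild-type human IL-17RA signal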
chimera F [14] = biological target: T5, chimera F; assay: Bio-Plex titration on His-captured chimera
[15] = biological target: T9, cynomolgus IL-17RA, on cells (cynomolgus); assay: FACS competition: non-clonal supernatant inhibiting biotin-huIL-17A (competitor) binding to cyno IL-17RA+ CHO cells
T9 construct: whole, on cells; also called CHO-cynoIL-17RA; cyno IL-17RA+ CHO cells

T4 sequence (Q60943 32-322 limits assumed): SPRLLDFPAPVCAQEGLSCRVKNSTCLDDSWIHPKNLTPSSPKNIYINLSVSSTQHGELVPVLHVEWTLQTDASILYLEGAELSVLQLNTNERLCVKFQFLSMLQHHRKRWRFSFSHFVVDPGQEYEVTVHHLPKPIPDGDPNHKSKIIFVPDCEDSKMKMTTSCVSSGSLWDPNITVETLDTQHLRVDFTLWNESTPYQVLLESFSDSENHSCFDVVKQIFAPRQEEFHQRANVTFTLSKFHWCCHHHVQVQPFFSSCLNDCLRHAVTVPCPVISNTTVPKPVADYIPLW

B1: AMH18/AML18 (antibody, IgG2, V domains shown)
VH: QVQLVQSGAEVKKPGASVKVSCKASGYSFTDYYMHWVRQAPGQGLEWMGWMHPNSGGTDLAQRFQGRVTMTRDTSISTAYMELSRLRSDDTAVYYCARGGYCSTLSCSFYWYFDLWGRGTLVTVSS
VL: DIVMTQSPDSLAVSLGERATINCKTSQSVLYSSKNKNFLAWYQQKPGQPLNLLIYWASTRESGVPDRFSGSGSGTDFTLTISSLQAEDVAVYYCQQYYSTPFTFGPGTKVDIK
notes: human mAb from IgG2 XenoMouse mice; also called AM-18; antibody G
In the case of B1, the “IL-17A/HFF IC50” value [1] is reported as 0.33 nM, the “IL-17A/lung fibroblast IC50” value [1] is reported as 0.081 nM and the “IL-17F/HFF IC50” value [1] is reported as 0.073 nM. The Kd [2] was 14.9 nM, the “normalized MFI” value (huIL-17RA-FLAG-polyHis [3]) was 344 and the “normalized MFI” value (huIL-17RA-FLAG-polyHis [4]) was 260. The “normalized MFI” value (huIL-17RA-FLAG-polyHis [5]) was 480, the “normalized MFI” value (huIL-17RA-FLAG-polyHis [6]) was 3230 and the “normalized MFI” value (huIL-17RA-FLAG-polyHis [7]) was 5380. The EC50 (chimera J) was 0.064 nM, the EC50 (chimera D) was 0.059 nM and the binding result (muIL-17RA-FLAG-polyHis) was “no binding”. For the same binder, the EC50 (chimera F [8]) was 3100 nM, the EC50 (chimera K [9]) was 31.3 nM and the “EC50 cell printed as zero (binding ablated)” value (chimera L) was 0 nM. It also gave an EC50 (chimera M [10]) of 1.55 nM, a Ka (huIL-17RA-FLAG-polyHis [11]) of 1.01e+08 M⁻¹ and a Kd (huIL-17RA-FLAG-polyHis [11]) of 9.88 nM. The koff (huIL-17RA-FLAG-polyHis [11]) was 0.00101 s⁻¹ and the kon (huIL-17RA-FLAG-polyHis [11]) was 102000 M⁻¹ s⁻¹.

B2: AMH21/AML21 (antibody, IgG2, V domains shown)
VH: EVQLVESGGGSVQPGGSLRLSCAASGFTFSSYSMNWVRQAPGKGLEWVSIISSRSSIIHYADSVKGRFTISRDNAKNSLYLQMNSLRDEDTAVYYCARPKVGGGMDVWGQGTTVTVSS
VL: DIQMTQSPSSLSASVGDRVTITCRASQGISNYLAWYQQKPGKFPELLIYAASTLQSGVPSRFSGSGSGTDFTLTISSLQPEDVATYYCQKYNRAPFTFGPGTKVDIK
notes: human mAb from IgG2 XenoMouse mice; also called AM-21; antibody Q
In the case of B2, the Kd [2] is reported as 16.7 nM, the “normalized MFI” value (huIL-17RA-FLAG-polyHis [3]) is reported as 1380 and the “normalized MFI” value (huIL-17RA-FLAG-polyHis [4]) is reported as 1170. The “normalized MFI” value (huIL-17RA-FLAG-polyHis [5]) was 6280, the “normalized MFI” value (huIL-17RA-FLAG-polyHis [6]) was 39 and the “normalized MFI” value (huIL-17RA-FLAG-polyHis [7]) was 175. For the same binder, the EC50 (chimera K [12]) was 0.017 nM, the EC50 (chimera M [13]) was 0.035 nM and the EC50 (chimera F [14]) was 0.026 nM. For the same binder, the MFI [15] was 6.

B3: AMH20/AML20 (antibody, IgG2, V domains shown)
VH: EVQLVESGGGLVQPGGSLRLSCAASGFTFSSYSMNWVRQAPGKGLEWVSFISARSSTIYYADSVKGRFTISRDNAKNSLYLQMNSLRDEDTAVYYCARPKVGGGMDVWGQGTTVTVSS
VL: DIQMTQSPSSLSASVGDRVTITCRASQGISNYLAWYQQKPGKFPELLIYAASTLQSGVPSRFSGSGSGTDFTLTISSLQPEDVATYYCQKYNRAPFTFGPGTKVDIK
notes: human mAb from IgG2 XenoMouse mice; also called AM-20; antibody R
B3 was tested, and the Kd [2] was 11.6 nM, the “normalized MFI” value (huIL-17RA-FLAG-polyHis [3]) was 783 and the “normalized MFI” value (huIL-17RA-FLAG-polyHis [4]) was 666. The “normalized MFI” value (huIL-17RA-FLAG-polyHis [5]) was 4020, the “normalized MFI” value (huIL-17RA-FLAG-polyHis [6]) was 24 and the “normalized MFI” value (huIL-17RA-FLAG-polyHis [7]) was 140. The EC50 (chimera K [12]) was 0.022 nM, the EC50 (chimera M [13]) was 0.04 nM and the EC50 (chimera F [14]) was 0.029 nM.
